Measured values: US20150250895A1 (GEORGETOWN UNIVERSITY, published 2015)

Molecular target: T1, activated matriptase (human, UniProt Q9Y5Y6 1-855)
T1 sequence (looked up): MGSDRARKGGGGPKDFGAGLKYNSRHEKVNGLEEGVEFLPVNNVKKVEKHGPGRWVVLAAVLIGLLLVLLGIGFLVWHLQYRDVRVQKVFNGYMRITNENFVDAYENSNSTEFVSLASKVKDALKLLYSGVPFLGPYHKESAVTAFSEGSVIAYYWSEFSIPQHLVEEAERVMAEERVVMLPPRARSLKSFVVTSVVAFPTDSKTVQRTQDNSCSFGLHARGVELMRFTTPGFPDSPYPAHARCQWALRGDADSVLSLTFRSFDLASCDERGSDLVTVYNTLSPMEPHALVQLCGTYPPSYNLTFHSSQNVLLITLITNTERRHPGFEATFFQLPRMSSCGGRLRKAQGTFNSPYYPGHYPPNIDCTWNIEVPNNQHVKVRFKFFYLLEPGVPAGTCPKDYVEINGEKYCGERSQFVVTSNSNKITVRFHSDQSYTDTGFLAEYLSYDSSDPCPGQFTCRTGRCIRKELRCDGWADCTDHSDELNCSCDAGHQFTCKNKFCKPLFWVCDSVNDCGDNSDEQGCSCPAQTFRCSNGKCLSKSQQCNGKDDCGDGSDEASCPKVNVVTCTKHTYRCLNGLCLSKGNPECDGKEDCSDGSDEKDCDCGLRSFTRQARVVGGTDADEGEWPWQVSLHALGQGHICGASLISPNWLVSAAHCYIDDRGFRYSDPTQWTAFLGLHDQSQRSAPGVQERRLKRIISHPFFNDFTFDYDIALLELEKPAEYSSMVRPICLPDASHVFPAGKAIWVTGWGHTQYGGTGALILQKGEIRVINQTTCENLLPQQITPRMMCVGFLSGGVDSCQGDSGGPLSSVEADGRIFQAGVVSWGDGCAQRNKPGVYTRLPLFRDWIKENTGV
Assay: cell-based or functional assay

B1: M17-DOX (monoclonal antibody M17 against activated matriptase conjugated to doxorubicin) (antibody, V domains shown)
VH: EVKLVESGGGLVQPGGSRKLSCAASGFTFSSFGMHWVRQAPEKGLEWVAYISSGSSTLHYADTVKGRFTISRDNPENTLLLMKLPSLCYGLLGSRNLSPRVLQ
VL: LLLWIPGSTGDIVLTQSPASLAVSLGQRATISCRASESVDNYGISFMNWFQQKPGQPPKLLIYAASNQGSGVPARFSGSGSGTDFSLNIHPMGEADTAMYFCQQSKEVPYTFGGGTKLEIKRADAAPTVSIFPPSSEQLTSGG
modifications: doxorubicin coupled via thioether bond formed by the SMCC reaction; sites not stated
IC50, MTS cell proliferation (cytotoxicity) assay, breast cancer cells MDA-MB468: 0.65 µg/mL
